Data published in patent US20200087363A1 (IMMATICS BIOTECHNOLOGIES, published 2020).

B1: MEFQNTQSY (peptide)
peptide: MEFQNTQSY
B2: QEAKPRATW (peptide)
peptide: QEAKPRATW
B3: REIENGNSF (peptide)
peptide: REIENGNSF
B4: TEDYSKQAL (peptide)
peptide: TEDYSKQAL
B5: NEVDGEYRY (peptide)
peptide: NEVDGEYRY
B6: HEDPSGSLHL (peptide)
peptide: HEDPSGSLHL
B7: GEPRKLLTQDW (peptide)
peptide: GEPRKLLTQDW
B8: VEMTGKHQL (peptide)
peptide: VEMTGKHQL
B9: KEAINLLKNY (peptide)
peptide: KEAINLLKNY
B10: AESLFREAL (peptide)
peptide: AESLFREAL
B11: AEALGAAKKL (peptide)
peptide: AEALGAAKKL
B12: QEISAHRTEF (peptide)
peptide: QEISAHRTEF
B13: DELMRKESQW (peptide)
peptide: DELMRKESQW
B14: SESALQTVI (peptide)
peptide: SESALQTVI
B15: SELSLLSLY (peptide)
peptide: SELSLLSLY
B16: TEENGFWYL (peptide)
peptide: TEENGFWYL
B17: RELEEEFYSL (peptide)
peptide: RELEEEFYSL
B18: AEQQQQQMY (peptide)
peptide: AEQQQQQMY
B19: EEYQDSFERY (peptide)
peptide: EEYQDSFERY
B20: SESSSAFQF (peptide)
peptide: SESSSAFQF
B21: AERDLNVTI (peptide)
peptide: AERDLNVTI
B22: EDNPSGHTY (peptide)
peptide: EDNPSGHTY
B23: ALEEGGGYIF (peptide)
peptide: ALEEGGGYIF
B24: KEDNPSGHTY (peptide)
peptide: KEDNPSGHTY
B25: RELARVVTL (peptide)
peptide: RELARVVTL
B26: EEAQWVRKYF (peptide)
peptide: EEAQWVRKYF
B27: SESPIRISV (peptide)
peptide: SESPIRISV
B28: QEVAQVASA (peptide)
peptide: QEVAQVASA
B29: AEIEADRSYQ (peptide)
peptide: AEIEADRSYQ
B30: SEFGAPRW (peptide)
peptide: SEFGAPRW
B31: TEVHSSPAQRW (peptide)
peptide: TEVHSSPAQRW
B32: YEHAFNSIVW (peptide)
peptide: YEHAFNSIVW
B33: SEENTGKTYF (peptide)
peptide: SEENTGKTYF
B34: QELLDFTNW (peptide)
peptide: QELLDFTNW
B35: MEVDPIGHVY (peptide)
peptide: MEVDPIGHVY
B36: RENDFEPKF (peptide)
peptide: RENDFEPKF
B37: QEVGEITNL (peptide)
peptide: QEVGEITNL
B38: KEMDPSRQSY (peptide)
peptide: KEMDPSRQSY
B39: AEYSVHKITSTF (peptide)
peptide: AEYSVHKITSTF
B40: SELGLPKEV (peptide)
peptide: SELGLPKEV
B41: AEMLGSVVGNW (peptide)
peptide: AEMLGSVVGNW
B42: FETEQALRL (peptide)
peptide: FETEQALRL
B43: AELDSKILAL (peptide)
peptide: AELDSKILAL
B44: KEFGLDSVEL (peptide)
peptide: KEFGLDSVEL
B45: AEEKAAVTSL (peptide)
peptide: AEEKAAVTSL
B46: EEYAGQITL (peptide)
peptide: EEYAGQITL
B47: EESFDSKFY (peptide)
peptide: EESFDSKFY
B48: AEGYLDLDGI (peptide)
peptide: AEGYLDLDGI
B49: RETEDYSKQAL (peptide)
peptide: RETEDYSKQAL
B50: EEHVYESIIRW (peptide)
peptide: EEHVYESIIRW
B51: EEAVRSVAF (peptide)
peptide: EEAVRSVAF
B52: TELEPGLTY (peptide)
peptide: TELEPGLTY
B53: EEAGFPLAY (peptide)
peptide: EEAGFPLAY
B54: AEYSVHKI (peptide)
peptide: AEYSVHKI
B55: AEADLSYTWDF (peptide)
peptide: AEADLSYTWDF
B56: SEYVHSSF (peptide)
peptide: SEYVHSSF
B57: TEFHMQFSY (peptide)
peptide: TEFHMQFSY
B58: ALSPVPSHW (peptide)
peptide: ALSPVPSHW
B59: SEYVHSSFSGF (peptide)
peptide: SEYVHSSFSGF
B60: GETVVLKNM (peptide)
peptide: GETVVLKNM
B61: KEVDPASNTY (peptide)
peptide: KEVDPASNTY
B62: AELVGPVIPQDW (peptide)
peptide: AELVGPVIPQDW
B63: SESKVFQLL (peptide)
peptide: SESKVFQLL
B64: REYEDGPLSL (peptide)
peptide: REYEDGPLSL
B65: SESMVESKF (peptide)
peptide: SESMVESKF
B66: VEVGDRTDW (peptide)
peptide: VEVGDRTDW
B67: QESVHVASYYW (peptide)
peptide: QESVHVASYYW
B68: EESFRCLPEW (peptide)
peptide: EESFRCLPEW
B69: EEINELNRMI (peptide)
peptide: EEINELNRMI
B70: AENIKKFLY (peptide)
peptide: AENIKKFLY
B71: QEVAQVASAIL (peptide)
peptide: QEVAQVASAIL
B72: AEEGPSVPKIY (peptide)
peptide: AEEGPSVPKIY
B73: SEATHIITI (peptide)
peptide: SEATHIITI

Each binder was assayed against T1, HLA-B*44:05 (human) (assay: UV peptide exchange, anti-b2m ELISA).
T1 construct: also called peptide-receptive MHC class I molecule
Outline: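 Peptide-receptive HLA-B*44:05 monomers after UV-induced exchange were diluted 100-fold and captured on streptavidin-coated plates for 1 h at 37 °C. Bound complexes were detected with 2 µg/ml HRP-anti-β2m (1 h, 37 °C) and TMB, read at 450 nm. β2m signal reflects peptide-stabilized complex yield.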

Row | peptide exchange yield | Binder
1 | 50 to 75% | B1
2 | 50 to 75% | B2
3 | 50 to 75% | B3
4 | 50 to 75% | B4
5 | 50 to 75% | B5
6 | 50 to 75% | B6
7 | 50 to 75% | B7
8 | 20 to 50% | B8
9 | 50 to 75% | B9
10 | 50 to 75% | B10
11 | 20 to 50% | B11
12 | 50 to 75% | B12
13 | 50 to 75% | B13
14 | 50 to 75% | B14
15 | 50 to 75% | B15
16 | > 75% | B16
17 | 50 to 75% | B17
18 | 50 to 75% | B18
19 | 20 to 50% | B19
20 | 50 to 75% | B20
21 | 50 to 75% | B21
22 | 20 to 50% | B22
23 | 10 to 20% | B23
24 | 50 to 75% | B24
25 | > 75% | B25

Row | peptide exchange yield | Binder
26 | 50 to 75% | B26
27 | 50 to 75% | B27
28 | 20 to 50% | B28
29 | 20 to 50% | B29
30 | 50 to 75% | B30
31 | 50 to 75% | B31
32 | > 75% | B32
33 | 50 to 75% | B33
34 | > 75% | B34
35 | 50 to 75% | B35
36 | 50 to 75% | B36
37 | 50 to 75% | B37
38 | 50 to 75% | B38
39 | > 75% | B39
40 | 20 to 50% | B40
41 | 50 to 75% | B41
42 | 50 to 75% | B42
43 | 50 to 75% | B43
44 | 50 to 75% | B44
45 | 50 to 75% | B45
46 | 50 to 75% | B46
47 | 50 to 75% | B47
48 | 20 to 50% | B48
49 | 20 to 50% | B49
50 | 50 to 75% | B50

Row | peptide exchange yield | Binder
51 | 50 to 75% | B51
52 | 50 to 75% | B52
53 | 50 to 75% | B53
54 | 50 to 75% | B54
55 | 50 to 75% | B55
56 | 20 to 50% | B56
57 | > 75% | B57
58 | 50 to 75% | B58
59 | 50 to 75% | B59
60 | 50 to 75% | B60
61 | 50 to 75% | B61
62 | 50 to 75% | B62
63 | 50 to 75% | B63
64 | 50 to 75% | B64
65 | 20 to 50% | B65
66 | 50 to 75% | B66
67 | > 75% | B67
68 | > 75% | B68
69 | 50 to 75% | B69
70 | 50 to 75% | B70
71 | > 75% | B71
72 | 50 to 75% | B72
73 | 50 to 75% | B73
